Experimental data published in US20160193299A1, “MODIFIED NUCLEOSIDE, NUCLEOTIDE, AND NUCLEIC ACID COMPOSITIONS” (Moderna Therapeutics, Inc., priority 2011, published 2016).

How the values were obtained:
[1] = Stability of modified RNA on storage (gel electrophoresis); type: physicochemical
Procedure: Stability experiments were conducted to obtain a better understanding of storage conditions to retain the integrity of modified RNA. […] After the mRNA had been stored for 0 hours, 2 hours, 6 hours, 24 hours, 48 hours, 5 days and 14 days, the mRNA was analyzed by gel electrophoresis using a Bio-Rad EXPERION′ system. The modified, unmodified and lipoplexed G-CSF mRNA was also stored in RNASTABLE® (Biomatrica, Inc. San Diego, Calif.) at 40° C. or water at −80° C. or 40° C. for 35 days before being analyzed by gel electrophoresis.
mRNA samples stored at 4° C., 25° C. and 37° C. were stored in 1× TE buffer or the formulation buffer (150 mM sodium chloride, 2 mM calcium chloride, 2 mM phosphate, 0.5 mM EDTA at a pH of 6.5). The mRNA stored at 4° C. was stable to at least 60 days in both the TE and formulation buffer. At 25° C. the mRNA in formulation buffer was stable out to 14 days and the TE buffer was stable out to at least 6 days. Storage of mRNA in the formulation buffer at 37° C. was stable to 6 days compared to the TE buffer which was stable only until 4 days.

[2] = system: Female BALB/C mice; test: In vivo detection of innate immune response: human G-CSF and mouse IFN-alpha in serum after I.M. injection; settings: for IFN-alpha expression: mouse IFN-alpha in serum, 200 ug/mouse mRNA (R848 75 ug)
Procedure: Blood is collected at 8 hours after dosing and using ELISA the protein levels of G-CSF and interferon-alpha (IFN-alpha) is determined by ELISA and are shown in Table 81.

[3] = system: neutrophil count; test: Example 41 intravenous administration of lipoplexed G-CSF mRNA, neutrophil count; type: in vivo; settings: mice IV, 10% lipoplex, 50 ug at days 0, 2, 4; day 5
Procedure: Neutrophils were measured at days 1, 5 and 8. Controls included non-specific mammalian RNA or the formulation buffer alone (F.Buffer). The mice were bled at days 1, 5 and 8 to determine the effect of mRNA-encoded human G-CSF to increase neutrophil count. The dosing regimen is shown in Table 64 as are the resulting neutrophil counts (thousands/uL; K/uL).

[4] = system: peripheral blood mononuclear cells (PBMC); test: Modified RNA transfected in PBMC: G-CSF expression at 6 and 18 hours (ELISA); type: cell-based, human
Procedure: (§1) 500 ng of G-CSF mRNA modified with 5-methylcytosine (5mC) and pseudouridine (pseudoU) or unmodified G-CSF mRNA was transfected with 0.4 uL of Lipofectamine 2000 into peripheral blood mononuclear cells (PBMC) from three normal blood donors (D1, D2, and D3). […] The supernatant was harvested 6 hours and 18 hours after transfection and run by ELISA to determine the protein expression. The expression of G-CSF, IFN-alpha, and TNF-alpha for Donor 1 is shown in Table 86, Donor 2 is shown in Table 87 and Donor 3 is shown in Table 88.

[5] = system: peripheral blood mononuclear cells (PBMC); test: Modified RNA transfected in PBMC: IFN-alpha and TNF-alpha at 6 and 18 hours (ELISA); type: cell-based, human
Procedure: as §1

[6] = system: peripheral blood mononuclear cells (PBMC); test: Example 46A percent-modified G-CSF mRNA transfected in PBMC, G-CSF ELISA; type: cell-based, human
Procedure: (§2) 960 ng of G-CSF mRNA modified with 5-methylcytosine (5mC) and pseudouridine (pseudoU) or unmodified G-CSF mRNA was transfected with 0.8 uL of Lipofectamine 2000 into peripheral blood mononuclear cells (PBMC) from three normal blood donors (D1, D2, D3). […] The supernatant was harvested and run by ELISA 22 hours after transfection to determine the protein expression. The expression of IFN-alpha and TNF-alpha may be a secondary effect from the transfection of the G-CSF mRNA.

[7] = system: HEK293; test: Example 46B percent-modified G-CSF mRNA transfected in HEK293, secreted G-CSF ELISA; type: cell-based, human; settings: HEK293, 250 ng mRNA with RNAiMAX, supernatant after 16 hours
Procedure: Human embryonic kidney epithelial (HEK293) cells were seeded on 96-well plates at a density of 30,000 cells per well in 100 ul cell culture medium. 250 ng of modified G-CSF mRNA (SEQ ID NO: 6; polyA tail of approximately 160 nucleotides not shown in sequence; 5′cap, Cap1) formulated with RNAiMAX™ (Invitrogen, Carlsbad, Calif.) was added to a well. The G-CSF was completely modified with 5mC and pseudoU (100% modification), not modified with 5mC and pseudoU (0% modification) or was partially modified with 5mC and pseudoU so the mRNA would contain 75% modification, 50% modification or 25% modification. Control samples (AK 5/2, mCherry (SEQ ID NO: 7; polyA tail of approximately 160 nucleotides not shown in sequence; 5′cap, Cap1; fully modified 5mC and pseudoU) and untreated) were also analyzed. […] The supernatants were harvested after 16 hours and the secreted G-CSF protein was analyzed by ELISA.

[8] = system: peripheral blood mononuclear cells (PBMC); test: IFN-alpha and TNF-alpha expression in transfected PBMC (ELISA) and PC ratio; type: cell-based, human; settings: for IFN-alpha expression / TNF-alpha Expression: ELISA 22 hours after transfection
Procedure: The supernatant was harvested and run by ELISA 22 hours after transfection to determine the protein expression.

[9] = system: peripheral blood mononuclear cells (PBMC); test: G-CSF expression in PBMC transfected with partially modified G-CSF mRNA (ELISA); type: cell-based, human; settings: for G-CSF Expression: ELISA 22 hours after transfection
Procedure: as §2, with “480” for “960”, “0.4” for “0.8”, “D2, and” for “D2,”

[10] = system: Human primary foreskin fibroblasts (BJ fibroblasts); test: Innate immune response in BJ fibroblasts, repeat transfection: cytokine response; type: cell-based
[11] = system: mice; test: In vivo cytokine expression study (serum IFN-alpha); settings: mouse serum; I.M. 200 ug mRNA; after 8 hours
Procedure: After 8 hours serum was collected from the mice and analyzed for interferon-alpha (IFN-alpha) expression.

[12] = system: female Sprague Dawley rats; test: In vivo delivery of modified RNA: G-CSF protein in rat serum (I.M.); settings: I.M. 400 ug in 100 ul, 5% sucrose, 8 hours after injection
Procedure: Protein production of modified mRNA was evaluated by delivering modified G-CSF mRNA or modified Factor IX mRNA to female Sprague Dawley rats (n=6). […] Blood was collected 8 hours after injection and the G-CSF protein level in serum was measured by ELISA.

[13] = PBMC, from averages of Tables 83 and 84

B1: Unmodified G-CSF mRNA: human G-CSF mRNA SEQ ID NO: 6 having no modifications (natural NTPs) (nucleic acid, listed as Homo sapiens)
chain: GGGAAAUAAGAGAGAAAAGAAGAGUAAGAAGAAAUAUAAGAGCCACCAUGGCCGGUCCCGCGACCCAAAGCCCCAUGAAACUUAUGGCCCUGCAGUUGCUGCUUUGGCACUCGGCCCUCUGGACAGUCCAAGAAGCGACUCCUCUCGGACCUGCCUCAUCGUUGCCGCAGUCAUUCCUUUUGAAGUGUCUGGAGCAGGUGCGAAAGAUUCAGGGCGAUGGAGCCGCACUCCAAGAGAAGCUCUGCGCGACAUACAAACUUUGCCAUCCCGAGGAGCUCGUACUGCUCGGGCACAGCUUGGGGAUUCCCUGGGCUCCUCUCUCGUCCUGUCCGUCGCAGGCUUUGCAGUUGGCAGGGUGCCUUUCCCAGCUCCACUCCGGUUUGUUCUUGUAUCAGGGACUGCUGCAAGCCCUUGAGGGAAUCUCGCCAGAAUUGGGCCCGACGCUGGACACGUUGCAGCUCGACGUGGCGGAUUUCGCAACAACCAUCUGGCAGCAGAUGGAGGAACUGGGGAUGGCACCCGCGCUGCAGCCCACGCAGGGGGCAAUGCCGGCCUUUGCGUCCGCGUUUCAGCGCAGGGCGGGUGGAGUCCUCGUAGCGAGCCACCUUCAAUCAUUUUUGGAAGUCUCGUACCGGGUGCUGAGACAUCUUGCGCAGCCGUGAAGCGCUGCCUUCUGCGGGGCUUGCCUUCUGGCCAUGCCCUUCUUCUCUCCCUUGCACCUGUACCUCUUGGUCUUUGAAUAAAGCCUGAGUAGGAAG
With B1 the freeze/thaw cycles tolerated [1] was 12 cycles, the IFN-alpha expression ([2]; I.M., 8 hours after dosing) was “robust cytokine response” and the “increase in neutrophil count above control” value [3] was “no pharmacologic effect”.

B2: 100% modification: G-CSF mRNA (SEQ ID NO: 6, Cap1) completely modified with 5mC and pseudoU (nucleic acid, listed as Homo sapiens)
chain: B1 chain
modifications: Cap1; fully 5-methylcytidine and pseudouridine modified
Molecule B2 has a G-CSF ([4]; PBMC Donor 1, 500 ng mRNA, 6 hours) of 1815 pg/mL, a G-CSF ([4]; PBMC Donor 1, 18 hours) of 2224 pg/mL and a G-CSF ([4]; PBMC Donor 2, 6 hours) of 2184 pg/mL. For the same molecule, the G-CSF ([4]; PBMC Donor 2, 18 hours) was 2432 pg/mL, the G-CSF ([4]; PBMC Donor 3, 6 hours) was 6086 pg/mL and the G-CSF ([4]; PBMC Donor 3, 18 hours) was 7549 pg/mL. It also gave an IFN-alpha ([5]; PBMC Donor 1, 6 hours) of 1 pg/mL, a TNF-alpha ([5]; PBMC Donor 1, 6 hours) of 0 pg/mL and an IFN-alpha ([5]; PBMC Donor 1, 18 hours) of 13 pg/mL. For the same molecule, the TNF-alpha ([5]; PBMC Donor 1, 18 hours) was 0 pg/mL, the IFN-alpha ([5]; PBMC Donor 2, 6 hours) was 0 pg/mL and the TNF-alpha ([5]; PBMC Donor 2, 6 hours) was 0 pg/mL. It also gave an IFN-alpha ([5]; PBMC Donor 2, 18 hours) of 7 pg/mL, a TNF-alpha ([5]; PBMC Donor 2, 18 hours) of 11 pg/mL and an IFN-alpha ([5]; PBMC Donor 3, 6 hours) of 7 pg/mL. For the same molecule, the TNF-alpha ([5]; PBMC Donor 3, 6 hours) was 11 pg/mL, the IFN-alpha ([5]; PBMC Donor 3, 18 hours) was 658 pg/mL and the TNF-alpha ([5]; PBMC Donor 3, 18 hours) was 11 pg/mL. For the same molecule, the “G-CSF Expression” value ([6]; PBMC donor D1, 960 ng mRNA) was 270.3 pg/mL, the “G-CSF Expression” value ([6]; PBMC donor D2, 960 ng mRNA) was 151.6 pg/mL and the “G-CSF Expression” value ([6]; PBMC donor D3, 960 ng mRNA) was 162.2 pg/mL. For the same molecule, the “G-CSF Expression” value [7] was 118.4 ng/mL, the “ratio of protein/cytokine production versus natural G-CSF mRNA, IFN-alpha” value ([8]; PBMC) was 100 fold and the “ratio of protein/cytokine production versus natural G-CSF mRNA, TNF-alpha” value ([8]; PBMC) was 27 fold. For the same molecule, the “IFN-alpha expression” value ([8]; PBMC donor D1) was 336.5 pg/mL, the “TNF-alpha Expression” value ([8]; PBMC donor D1) was 115.0 pg/mL and the “IFN-alpha expression” value ([8]; PBMC donor D2) was 78.0 pg/mL. The “TNF-alpha Expression” value ([8]; PBMC donor D2) was 15.0 pg/mL, the “IFN-alpha expression” value ([8]; PBMC donor D3) was 46.4 pg/mL and the “TNF-alpha Expression” value ([8]; PBMC donor D3) was 11.1 pg/mL. For the same molecule, the “G-CSF/IFN-alpha (PC ratio)” value [8, 13] was 16, the “G-CSF/TNF-alpha (PC ratio)” value [8, 13] was 52 and the “Average IFN-a” value ([8]; average of PBMC donors D1-D3) was 153 pg/mL. The “Average TNF-a” value ([8]; average of PBMC donors D1-D3) was 47 pg/mL, the “G-CSF Expression” value ([9]; PBMC donor D1, 480 ng mRNA + Lipofectamine 2000) was 1968.9 pg/mL and the “G-CSF Expression” value ([9]; PBMC donor D2, 480 ng mRNA) was 2595.6 pg/mL. For the same molecule, the “G-CSF Expression” value ([9]; PBMC donor D3, 480 ng mRNA) was 2835.7 pg/mL and the “Average G-CSF” value ([9]; average of PBMC donors D1-D3) was 2466 pg/mL.

B3: G-CSF Gen 2: G-CSF mRNA SEQ ID NO: 6, Cap1, fully modified with 5-methylcytosine and N1-methylpseudouridine (nucleic acid, listed as Homo sapiens)
chain: B1 chain
modifications: Cap1, 5mC/N1-methylpseudouridine modified
In the case of B3, the “PC Ratio” value ([2]; Protein:Cytokine ratio, G-CSF / IFN-alpha in mouse serum) is reported as 748, the G-CSF protein ([2]; human G-CSF in mouse serum, I.M., 200 ug/mouse mRNA (R848 75 ug) in 5% sucrose, 8 hours after dosing) is reported as 748.1 pg/mL and the IFN-alpha expression ([2]; I.M., 8 hours after dosing, listed as 5mc/N1pU modified mRNA) is reported as “no detectable IFN-alpha”. For the same molecule, the IFN-alpha expression ([2]; I.M., 8 hours after dosing, listed as GCSF mRNA5mc/N1pU) was 0 pg/mL, the IFN-beta ([10]; 250 ng transfected daily for 5 days, 6 hours) was 0 pg/mL and the IL-6 ([10]; daily transfection, 6 hours) was 3337 pg/mL. The IFN-beta ([10]; daily transfection, Day 1) was 0 pg/mL, the IL-6 ([10]; daily transfection, Day 1) was 3733 pg/mL and the IFN-beta ([10]; daily transfection, Day 2) was 150 pg/mL. The IL-6 ([10]; daily transfection, Day 2) was 974 pg/mL, the IFN-beta ([10]; daily transfection, Day 3) was 213 pg/mL and the IL-6 ([10]; daily transfection, Day 3) was 4972 pg/mL. It also gave an IFN-beta ([10]; daily transfection, Day 4) of 1400 pg/mL, an IL-6 ([10]; daily transfection, Day 4) of 4122 pg/mL and an IFN-beta ([10]; daily transfection, Day 5) of 350 pg/mL. It also gave an IL-6 ([10]; daily transfection, Day 5) of 2906 pg/mL, an IFN-alpha [11] of 0 pg/mL and a G-CSF protein [12] of 64.72 pg/mL.
